Test results as given in PMC6929626, “PET/MRI enables simultaneous in vivo quantification of β-cell mass and function” (Theranostics, 2020).

Molecular target: T1, GLP-1R (Mus musculus, UniProt O35659)
T1 construct: high expression level of glucagon-like-peptide-1 receptor (GLP-1R) on the surface of β-cells enables their specific detection and quantification in the native pancreas; from tissue; host or cells: pancreas and insulinomas of living control and RIP1-Tag2 mice
T1 sequence (O35659 22-463): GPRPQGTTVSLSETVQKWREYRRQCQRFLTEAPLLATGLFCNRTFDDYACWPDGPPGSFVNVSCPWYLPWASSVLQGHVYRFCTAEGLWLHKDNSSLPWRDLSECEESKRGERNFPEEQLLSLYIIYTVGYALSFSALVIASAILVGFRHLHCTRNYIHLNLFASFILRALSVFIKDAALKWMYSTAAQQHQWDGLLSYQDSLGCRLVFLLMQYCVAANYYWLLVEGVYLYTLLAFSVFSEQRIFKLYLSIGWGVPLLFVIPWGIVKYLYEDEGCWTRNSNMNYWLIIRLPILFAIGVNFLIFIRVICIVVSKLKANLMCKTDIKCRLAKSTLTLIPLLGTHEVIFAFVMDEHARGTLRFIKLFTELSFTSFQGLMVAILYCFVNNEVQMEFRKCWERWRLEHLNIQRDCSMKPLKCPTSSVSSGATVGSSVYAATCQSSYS
Set-up: species or system mice
Details: in vivo
Protocol: In brief, mice were fasted for 4-6 hours and anesthetized with 1-2% isoflurane/O2 gas mixture (Vetland, Louisville, KY, USA) before the in vivo measurements. A tail vein catheter was initially placed for the co-injection of 50 µL of tracer solution (0.12 MBq/g bodyweight) and 50 µL of MnCl2:Bicine solution (75 µmol/kg body weight). The animals were placed in supine position on the bed in order to attenuate the motion artifacts rising from the respiratory movements. Thus, [^64Cu]Ex4 and MnCl2 solution were co-injected i.v. as a bolus a few seconds after the beginning of dynamic PET measurements. […] PET quantification was performed by 20-min static frames acquired simultaneously with 7T MRI scanner using a compatible PET-insert or consecutively using an Inveon-PET scanner (Inveon Dedicated PET, Siemens Healthineers, Knoxville, TN, USA). […] During the acquisition, we monitored the breathing with an MR-compatible breathing sensor. […]
The volume of interest (VOI) for the entire pancreas (Pancreas^Control; Pancreas^RIP1-Tag2) and the detected insulinomas (Insulinomas^RIP1-Tag2) were manually drawn in Inveon Research Workplace (Siemens Heathineers) after co-registration of the PET images. […] The co-registered VOIs were exported and analyzed in MATLAB (R2013b; The MathWorks, Natick, MA, USA) using an in-house script. […] For the quantification, we considered voxels with R1 values between 0.4 and 10 s^-1. […]

[^64Cu]Cu-NODAGA-^40Lys-Exendin-4 [[^64Cu]Ex4]
dynamic PET curve of pancreatic uptake: stable pancreatic uptake after 20 min until 1 h
